The target of the experiment is T1, Human transferrin receptor 1 (TfR), avi-tagged, biotinylated (human, UniProt P02786 101-760).
T1 construct: also called biotinylated TfR
Put plainly: flow cytometry on cells; yeast surface display titration; varied TfR concentration, normalized MFU fitted non-linearly, averaged from three experiments; apparent Kd. The note with it: one partner purified. Background: In flow cytometry, cells or beads pass a laser one at a time.

T1 sequence (P02786 101-760): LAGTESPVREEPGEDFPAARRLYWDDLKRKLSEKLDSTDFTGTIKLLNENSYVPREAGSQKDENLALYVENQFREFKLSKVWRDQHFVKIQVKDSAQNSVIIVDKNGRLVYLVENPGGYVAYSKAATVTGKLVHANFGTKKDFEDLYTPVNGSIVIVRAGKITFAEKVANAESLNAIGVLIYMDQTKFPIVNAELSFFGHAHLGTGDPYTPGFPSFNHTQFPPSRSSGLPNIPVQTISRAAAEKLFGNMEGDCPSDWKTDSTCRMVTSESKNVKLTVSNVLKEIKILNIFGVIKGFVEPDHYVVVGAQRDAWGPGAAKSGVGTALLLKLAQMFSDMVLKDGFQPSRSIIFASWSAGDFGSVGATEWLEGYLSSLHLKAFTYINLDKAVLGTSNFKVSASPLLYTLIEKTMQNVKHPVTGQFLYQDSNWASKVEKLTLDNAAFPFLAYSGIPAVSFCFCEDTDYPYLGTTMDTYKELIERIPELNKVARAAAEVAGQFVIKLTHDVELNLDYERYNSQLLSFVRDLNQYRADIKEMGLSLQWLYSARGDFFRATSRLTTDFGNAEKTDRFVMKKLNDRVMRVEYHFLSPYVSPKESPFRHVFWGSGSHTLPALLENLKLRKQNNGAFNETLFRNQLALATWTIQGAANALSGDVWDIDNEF

B1: TB14.3A T78I (S4.4), yeast surface displayed (designed binder)
chain: MEKRFYVLLIIVEDRKKAYRQVNELLHNFSEYILLRMGQDHRERYQSTIALVLKVDNDAIGALSGKLGQISGVKVMTIPEKRGSLE
modifications: biotinylated
B1: the Kd came to 305 ± 55 nM.

For the origin of these results see PMC12626770 (Protein Science : A Publication of the Protein Society, 2025).
